Experiments:
CDC42 (Homo sapiens) = CDC42 (Homo sapiens) (UniProt P60953); details: cited from earlier work
RHOA (Homo sapiens) = RHOA (Homo sapiens) (UniProt P61586); details: cited from earlier work
RAC1 (Homo sapiens) = RAC1 (Homo sapiens) (UniProt P63000); details: cited from earlier work
[1] = target: RAC1^ΔC10 (C-terminal truncated variant lacking HVR-CAAX) (human) (UniProt P63000); assay: fluorescence polarisation; increasing GDI1 (variants) titrated to 0.2 µM mdGDP-bound RHO protein, 200 µL; 25 °C, 30 mM Tris/HCl pH 7.5, 10 mM K2HPO4/KH2PO4 pH 7.5, 5 mM MgCl2, 3 mM DTT; quadratic binding equation
[2] = target: RAC1, RAC3, RHOG and RHOA; assay: stopped-flow fluorimetry; kon from kobs against increasing GDI concentrations mixed with 0.2 µM mdGDP-bound RHO GTPase; koff by displacement with excess unlabeled GDP-bound RHO protein; Kd = koff/kon; 25 °C, 30 mM Tris/HCl pH 7.5, 10 mM K2HPO4/KH2PO4 pH 7.5, 5 mM MgCl2, 3 mM DTT
[3] = target: geranylgeranylated RAC1 (RAC1^GG) (human) (UniProt P63000); assay: as above
[4] = target: geranylgeranylated RAC1 (RAC1^GG) (human) (UniProt P63000); assay: not stated
[5] = target: non-isoprenylated RAC1 full-length (RAC1^FL) (human) (UniProt P63000); assay: fluorescence polarisation; increasing GDI1 (variants) titrated to 0.2 µM mdGDP-bound RHO protein, 200 µL; 25 °C, 30 mM Tris/HCl pH 7.5, 10 mM K2HPO4/KH2PO4 pH 7.5, 5 mM MgCl2, 3 mM DTT; quadratic binding equation
[6] = target: non-isoprenylated RAC1 full-length (RAC1^FL) (human) (UniProt P63000); assay: stopped-flow fluorimetry; kon from kobs against increasing GDI concentrations mixed with 0.2 µM mdGDP-bound RHO GTPase; koff by displacement with excess unlabeled GDP-bound RHO protein; Kd = koff/kon; 25 °C, 30 mM Tris/HCl pH 7.5, 10 mM K2HPO4/KH2PO4 pH 7.5, 5 mM MgCl2, 3 mM DTT
[7] = target: non-isoprenylated RAC1 full-length (RAC1^FL) (human) (UniProt P63000); assay: stopped-flow fluorimetry; association (kobs) at one concentration: 2 µM GDI mixed with 0.2 µM mdGDP-bound RHO GTPase; 25 °C, 30 mM Tris/HCl pH 7.5, 10 mM K2HPO4/KH2PO4 pH 7.5, 5 mM MgCl2, 3 mM DTT
[8] = target: geranylgeranylated RAC1 (RAC1^GG) (human) (UniProt P63000); assay: as above

Chain of RHOA (Homo sapiens) (P61586 1-190): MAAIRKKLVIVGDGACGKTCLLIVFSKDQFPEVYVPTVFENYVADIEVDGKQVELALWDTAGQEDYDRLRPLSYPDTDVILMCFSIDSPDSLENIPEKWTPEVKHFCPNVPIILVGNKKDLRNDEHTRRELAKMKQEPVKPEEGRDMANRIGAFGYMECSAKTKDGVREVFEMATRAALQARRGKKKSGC
Chain of CDC42 (Homo sapiens) (P60953 1-188): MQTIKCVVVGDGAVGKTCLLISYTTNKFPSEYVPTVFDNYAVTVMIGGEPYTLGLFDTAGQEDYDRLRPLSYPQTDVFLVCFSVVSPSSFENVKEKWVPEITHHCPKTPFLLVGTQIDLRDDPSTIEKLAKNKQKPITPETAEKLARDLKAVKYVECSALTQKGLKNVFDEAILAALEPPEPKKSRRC

For GDI1 (from UniProt P52565), the Kd (CDC42 (Homo sapiens)) is listed as 1.6 nM, the Kd (RHOA (Homo sapiens)) is listed as 0.005 nM and the Kd (RAC1 (Homo sapiens)) is listed as 0.4 nM.

With “GDI1 (RHOGDI1), wild type (from UniProt P52565 1-204) (natural protein)” the fold lower affinity than for RAC1 [1] was 26 fold, the Kd [2] was 900 to 3200 nM and the fold difference of koff between RAC1^GG and RAC1^FL [3] was 3 fold. For the same substance, the fold higher affinity than for RAC1^FL (Kd from koff/kon) [3] was 7 fold, the Kd [4] was 180 nM and the fold lower Kd than for RAC1^FL [4] was 2.5 to 4.6 fold.

“GDI1^ΔN15 (from UniProt P52565 16-204) (domain or fragment)” showed a fold change of Kd against GDI1^WT [5] of 440 fold, a fold difference in kon against GDI1 wt [6] of over 100 fold and a fold slower association rate than GDI1^WT [7] of under 24 fold. The fold slower association rate than GDI1^WT [8] was under 24 fold.

Substance “GDI1^ΔC6 (from UniProt P52565 1-198) (domain or fragment)” has a fold change of Kd against GDI1^WT [5] of 140 fold, a fold difference in kon against GDI1 wt [6] of over 100 fold and a fold slower association rate than GDI1^WT [7] of under 24 fold. The fold slower association rate than GDI1^WT [8] was under 24 fold.
